US20230142800A1 (COMMISSARIAT A L ENERGIE ATOMIQUE ET AUX ENERGIES …, published 2023)

B1: CDRH2 library mutant AAIAWNGGHH (Fab, V domains shown)
VH: EVQLVESGGGLVQPGRSLRLSCAASGFTFDDYAMHWVRQAPGKGLEWVAAIAWNGGHHDYADSVEGRFTISRDNAKNSLYLQMNSLRAEDTAVYYCAKVSYLSTASSLDYWGQGTLVTVSS
VL: not shown
B2: CDRH2 library mutant AAIAWNGGHQ (Fab, V domains shown)
VH: EVQLVESGGGLVQPGRSLRLSCAASGFTFDDYAMHWVRQAPGKGLEWVAAIAWNGGHQDYADSVEGRFTISRDNAKNSLYLQMNSLRAEDTAVYYCAKVSYLSTASSLDYWGQGTLVTVSS
VL: not shown
B3: CDRH3 library mutant LYYCAKTKYLPS (Fab, V domains shown)
VH: EVQLVESGGGLVQPGRSLRLSCAASGFTFDDYAMHWVRQAPGKGLEWVSAITWNSGHIDYADSVEGRFTISRDNAKNSLYLQMNSLRAEDTALYYCAKTKYLPSASSLDYWGQGTLVTVSS
VL: not shown
B4: CDRH3 library mutant LYYCAKTKYLPT (Fab, V domains shown)
VH: EVQLVESGGGLVQPGRSLRLSCAASGFTFDDYAMHWVRQAPGKGLEWVSAITWNSGHIDYADSVEGRFTISRDNAKNSLYLQMNSLRAEDTALYYCAKTKYLPTASSLDYWGQGTLVTVSS
VL: not shown
B5: CDRH3 library mutant LYYCAKTNYLPT (Fab, V domains shown)
VH: EVQLVESGGGLVQPGRSLRLSCAASGFTFDDYAMHWVRQAPGKGLEWVSAITWNSGHIDYADSVEGRFTISRDNAKNSLYLQMNSLRAEDTALYYCAKTNYLPTASSLDYWGQGTLVTVSS
VL: not shown
B6: CDRH3 library mutant LYYCAKTRYLPS (Fab, V domains shown)
VH: EVQLVESGGGLVQPGRSLRLSCAASGFTFDDYAMHWVRQAPGKGLEWVSAITWNSGHIDYADSVEGRFTISRDNAKNSLYLQMNSLRAEDTALYYCAKTRYLPSASSLDYWGQGTLVTVSS
VL: not shown
B7: CDRH3 library mutant LYYCAKTRYLPT (Fab, V domains shown)
VH: EVQLVESGGGLVQPGRSLRLSCAASGFTFDDYAMHWVRQAPGKGLEWVSAITWNSGHIDYADSVEGRFTISRDNAKNSLYLQMNSLRAEDTALYYCAKTRYLPTASSLDYWGQGTLVTVSS
VL: not shown
B8: CDRH3 library mutant LYYCAKTTYLPS (Fab, V domains shown)
VH: EVQLVESGGGLVQPGRSLRLSCAASGFTFDDYAMHWVRQAPGKGLEWVSAITWNSGHIDYADSVEGRFTISRDNAKNSLYLQMNSLRAEDTALYYCAKTTYLPSASSLDYWGQGTLVTVSS
VL: not shown
B9: CDRH3 library mutant LYYCAKTTYLPT (Fab, V domains shown)
VH: EVQLVESGGGLVQPGRSLRLSCAASGFTFDDYAMHWVRQAPGKGLEWVSAITWNSGHIDYADSVEGRFTISRDNAKNSLYLQMNSLRAEDTALYYCAKTTYLPTASSLDYWGQGTLVTVSS
VL: not shown
B10: CDRH3 library mutant LYYCAKVKYLPS (Fab, V domains shown)
VH: EVQLVESGGGLVQPGRSLRLSCAASGFTFDDYAMHWVRQAPGKGLEWVSAITWNSGHIDYADSVEGRFTISRDNAKNSLYLQMNSLRAEDTALYYCAKVKYLPSASSLDYWGQGTLVTVSS
VL: not shown
B11: CDRH3 library mutant LYYCAKVKYLPT (Fab, V domains shown)
VH: EVQLVESGGGLVQPGRSLRLSCAASGFTFDDYAMHWVRQAPGKGLEWVSAITWNSGHIDYADSVEGRFTISRDNAKNSLYLQMNSLRAEDTALYYCAKVKYLPTASSLDYWGQGTLVTVSS
VL: not shown
B12: CDRH3 library mutant LYYCAKVKYTPT (Fab, V domains shown)
VH: EVQLVESGGGLVQPGRSLRLSCAASGFTFDDYAMHWVRQAPGKGLEWVSAITWNSGHIDYADSVEGRFTISRDNAKNSLYLQMNSLRAEDTALYYCAKVKYTPTASSLDYWGQGTLVTVSS
VL: not shown
B13: CDRH3 library mutant VYYCAKAHHLPT (Fab, V domains shown)
VH: EVQLVESGGGLVQPGRSLRLSCAASGFTFDDYAMHWVRQAPGKGLEWVSAITWNSGHIDYADSVEGRFTISRDNAKNSLYLQMNSLRAEDTAVYYCAKAHHLPTASSLDYWGQGTLVTVSS
VL: not shown
B14: CDRH3 library mutant VYYCAKAKYLPT (Fab, V domains shown)
VH: EVQLVESGGGLVQPGRSLRLSCAASGFTFDDYAMHWVRQAPGKGLEWVSAITWNSGHIDYADSVEGRFTISRDNAKNSLYLQMNSLRAEDTAVYYCAKAKYLPTASSLDYWGQGTLVTVSS
VL: not shown
B15: CDRH3 library mutant VYYCAKSKYLPT (Fab, V domains shown)
VH: EVQLVESGGGLVQPGRSLRLSCAASGFTFDDYAMHWVRQAPGKGLEWVSAITWNSGHIDYADSVEGRFTISRDNAKNSLYLQMNSLRAEDTAVYYCAKSKYLPTASSLDYWGQGTLVTVSS
VL: not shown
B16: CDRH3 library mutant VYYCAKTGYLPT (Fab, V domains shown)
VH: EVQLVESGGGLVQPGRSLRLSCAASGFTFDDYAMHWVRQAPGKGLEWVSAITWNSGHIDYADSVEGRFTISRDNAKNSLYLQMNSLRAEDTAVYYCAKTGYLPTASSLDYWGQGTLVTVSS
VL: not shown
B17: CDRH3 library mutant VYYCAKTHYLPT (Fab, V domains shown)
VH: EVQLVESGGGLVQPGRSLRLSCAASGFTFDDYAMHWVRQAPGKGLEWVSAITWNSGHIDYADSVEGRFTISRDNAKNSLYLQMNSLRAEDTAVYYCAKTHYLPTASSLDYWGQGTLVTVSS
VL: not shown
B18: CDRH3 library mutant VYYCAKTKYLPS (Fab, V domains shown)
VH: EVQLVESGGGLVQPGRSLRLSCAASGFTFDDYAMHWVRQAPGKGLEWVSAITWNSGHIDYADSVEGRFTISRDNAKNSLYLQMNSLRAEDTAVYYCAKTKYLPSASSLDYWGQGTLVTVSS
VL: not shown
B19: CDRH3 library mutant VYYCAKTKYLPT (Fab, V domains shown)
VH: EVQLVESGGGLVQPGRSLRLSCAASGFTFDDYAMHWVRQAPGKGLEWVSAITWNSGHIDYADSVEGRFTISRDNAKNSLYLQMNSLRAEDTAVYYCAKTKYLPTASSLDYWGQGTLVTVSS
VL: not shown
B20: CDRH3 library mutant VYYCAKTNYLPT (Fab, V domains shown)
VH: EVQLVESGGGLVQPGRSLRLSCAASGFTFDDYAMHWVRQAPGKGLEWVSAITWNSGHIDYADSVEGRFTISRDNAKNSLYLQMNSLRAEDTAVYYCAKTNYLPTASSLDYWGQGTLVTVSS
VL: not shown
B21: CDRH3 library mutant VYYCAKTRYLPT (Fab, V domains shown)
VH: EVQLVESGGGLVQPGRSLRLSCAASGFTFDDYAMHWVRQAPGKGLEWVSAITWNSGHIDYADSVEGRFTISRDNAKNSLYLQMNSLRAEDTAVYYCAKTRYLPTASSLDYWGQGTLVTVSS
VL: not shown
B22: CDRH3 library mutant VYYCAKTRYTPT (Fab, V domains shown)
VH: EVQLVESGGGLVQPGRSLRLSCAASGFTFDDYAMHWVRQAPGKGLEWVSAITWNSGHIDYADSVEGRFTISRDNAKNSLYLQMNSLRAEDTAVYYCAKTRYTPTASSLDYWGQGTLVTVSS
VL: not shown
B23: CDRH3 library mutant VYYCAKTSYLPS (Fab, V domains shown)
VH: EVQLVESGGGLVQPGRSLRLSCAASGFTFDDYAMHWVRQAPGKGLEWVSAITWNSGHIDYADSVEGRFTISRDNAKNSLYLQMNSLRAEDTAVYYCAKTSYLPSASSLDYWGQGTLVTVSS
VL: not shown
B24: CDRH3 library mutant VYYCAKTTYLPS (Fab, V domains shown)
VH: EVQLVESGGGLVQPGRSLRLSCAASGFTFDDYAMHWVRQAPGKGLEWVSAITWNSGHIDYADSVEGRFTISRDNAKNSLYLQMNSLRAEDTAVYYCAKTTYLPSASSLDYWGQGTLVTVSS
VL: not shown
B25: CDRH3 library mutant VYYCAKTTYLPT (Fab, V domains shown)
VH: EVQLVESGGGLVQPGRSLRLSCAASGFTFDDYAMHWVRQAPGKGLEWVSAITWNSGHIDYADSVEGRFTISRDNAKNSLYLQMNSLRAEDTAVYYCAKTTYLPTASSLDYWGQGTLVTVSS
VL: not shown
B26: CDRH3 library mutant VYYCAKVAYLPS (Fab, V domains shown)
VH: EVQLVESGGGLVQPGRSLRLSCAASGFTFDDYAMHWVRQAPGKGLEWVSAITWNSGHIDYADSVEGRFTISRDNAKNSLYLQMNSLRAEDTAVYYCAKVAYLPSASSLDYWGQGTLVTVSS
VL: not shown
B27: CDRH3 library mutant VYYCAKVKYLPA (Fab, V domains shown)
VH: EVQLVESGGGLVQPGRSLRLSCAASGFTFDDYAMHWVRQAPGKGLEWVSAITWNSGHIDYADSVEGRFTISRDNAKNSLYLQMNSLRAEDTAVYYCAKVKYLPAASSLDYWGQGTLVTVSS
VL: not shown
B28: CDRH3 library mutant VYYCAKVKYLPP (Fab, V domains shown)
VH: EVQLVESGGGLVQPGRSLRLSCAASGFTFDDYAMHWVRQAPGKGLEWVSAITWNSGHIDYADSVEGRFTISRDNAKNSLYLQMNSLRAEDTAVYYCAKVKYLPPASSLDYWGQGTLVTVSS
VL: not shown
B29: CDRH3 library mutant VYYCAKVKYLPS (Fab, V domains shown)
VH: EVQLVESGGGLVQPGRSLRLSCAASGFTFDDYAMHWVRQAPGKGLEWVSAITWNSGHIDYADSVEGRFTISRDNAKNSLYLQMNSLRAEDTAVYYCAKVKYLPSASSLDYWGQGTLVTVSS
VL: not shown
B30: CDRH3 library mutant VYYCAKVTYLPS (Fab, V domains shown)
VH: EVQLVESGGGLVQPGRSLRLSCAASGFTFDDYAMHWVRQAPGKGLEWVSAITWNSGHIDYADSVEGRFTISRDNAKNSLYLQMNSLRAEDTAVYYCAKVTYLPSASSLDYWGQGTLVTVSS
VL: not shown
B31: CDRH3 library mutant VYYCAKVTYTPS (Fab, V domains shown)
VH: EVQLVESGGGLVQPGRSLRLSCAASGFTFDDYAMHWVRQAPGKGLEWVSAITWNSGHIDYADSVEGRFTISRDNAKNSLYLQMNSLRAEDTAVYYCAKVTYTPSASSLDYWGQGTLVTVSS
VL: not shown

The binders below were run against T1, biotinylated TNF alpha (human (definition in paragraph 32)); the …, UniProt P01375 77-233, biotinylated (site not stated)) (assay: yeast display FACS sorting on biotinylated TNF alpha, NGS enrichment, CDRH2 library).
T1 construct: Used for FACS sorting of yeast libraries and immobilised on streptavidin sensors for BLI; also called TNFα; Tumor Necrosis Factor Alpha
T1 sequence (P01375 77-233 limits assumed): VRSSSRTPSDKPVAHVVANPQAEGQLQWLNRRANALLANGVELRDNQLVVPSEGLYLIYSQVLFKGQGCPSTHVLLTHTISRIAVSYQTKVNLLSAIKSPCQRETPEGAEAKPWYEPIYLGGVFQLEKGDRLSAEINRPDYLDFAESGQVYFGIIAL

Question: How did the Enrichment turn out when B1 was run?
Answer: 119

Question: For B2, which Enrichment is on record?
Answer: 109

Each binder was assayed against T1, biotinylated TNF alpha (assay: yeast display MACS and FACS sorting on biotinylated TNF alpha, NGS enrichment, CDRH3 library).
Description: The second selection phase consists of selecting the mutant by the dissociation speed thereof.
The selection of DMS libraries was done in a single step by FACS on an ARIA III device (Becton Dickinson, Franklin Lakes, United States). […] After washing the cells with PBS 0.1% BSA, they were marked by using an APC coupled antibody directed against the OK domain (Thermo Fisher Scientific, Waltham, United States; dilution 1:100) and a PE coupled streptavidin (Thermo Fisher Scientific, Waltham, United States; dilution 1:100). The selection of libraries was done by means of rectangular sorting window containing 5% of the clones of interest according to the optimal parameters described by Kowalski et al. PLoS One 10, 1-23 (2015)). The selection of de-immunization libraries was done in several steps. […] The libraries underwent different steps of sorting by FACS.

Question: With B3 as the binder, how does the Enrichment read?
Answer: 65400

Question: With B4 as the binder, how does the Enrichment read?
Answer: 97400

Question: B5 was tested. Which Enrichment did it give?
Answer: 448000

Question: How did the Enrichment turn out when B6 was run?
Answer: 63500

Question: For B7, which Enrichment is on record?
Answer: 59400

Question: Which Enrichment does the source give for B8 here?
Answer: 151000

Question: With B9 as the binder, how does the Enrichment read?
Answer: 54100

Question: For B10, which Enrichment is on record?
Answer: 188000

Question: How did the Enrichment turn out when B11 was run?
Answer: 251000

Question: How did the Enrichment turn out when B12 was run?
Answer: 110000

Question: B13 was tested. Which Enrichment did it give?
Answer: 122000

Question: How did the Enrichment turn out when B14 was run?
Answer: 163000

Question: With B15 as the binder, how does the Enrichment read?
Answer: 105000

Question: How did the Enrichment turn out when B16 was run?
Answer: 100000

Question: B17 was tested. Which Enrichment did it give?
Answer: 61200

Question: B18 was tested. Which Enrichment did it give?
Answer: 87100

Question: With B19 as the binder, how does the Enrichment read?
Answer: 1.06e+06

Question: For B20, which Enrichment is on record?
Answer: 51900

Question: How did the Enrichment turn out when B21 was run?
Answer: 707000

Question: B22 was tested. Which Enrichment did it give?
Answer: 80800

Question: With B23 as the binder, how does the Enrichment read?
Answer: 371000

Question: Which Enrichment does the source give for B24 here?
Answer: 149000

Question: With B25 as the binder, how does the Enrichment read?
Answer: 1.29e+06

Question: Which Enrichment does the source give for B26 here?
Answer: 62000

Question: B27 was tested. Which Enrichment did it give?
Answer: 81400

Question: With B28 as the binder, how does the Enrichment read?
Answer: 61600

Question: Which Enrichment does the source give for B29 here?
Answer: 71900

Question: B30 was tested. Which Enrichment did it give?
Answer: 241000

Question: Which Enrichment does the source give for B31 here?
Answer: 99200
